Data on one substance can be found in paper PMC6798120.

Holding throughout (assay): flow cytometry on cells
Background: Flow cytometry measures light scatter and fluorescence of single cells or particles in a stream.

Experiment [1] deals with MHV-A59 S protein I22A (mouse hepatitis virus A59).
The target in experiment [2] is MHV-A59 S protein Y15A/L160A (mouse hepatitis virus A59).
Experiment [3] has as its target MHV-A59 S protein R20A (mouse hepatitis virus A59).

For soluble receptor mCEACAM1a[1,4], the reduction of receptor binding against WT in experiment [1] was 83%; in experiment [2], greater than 65%; in experiment [3], 61%.
